Laboratory results from patent publication US20220048967A1 (published 2022).
Where a chain is given by its changes, count along the chain named. Numbered stars: 1 amine (or outer) side, 2 acyl side, 3 side chain; on linkers, the order of the positions; unused ones are H or OH. Square brackets hold non-standard residues; d marks the D form. Side chains are listed from the residue outwards. Ends that are not written are not given here. * marks the point of attachment. C20 diacid = O=C(O)CCCCCCCCCCCCCCCCCCC(=O)*; γGlu = O=C(O)[C@H](CCC(=O)[*:2])N[*:1]; AEEA = NCCOCCOCC(=O)O; Aib = CC(C)(N)C(=O)O

T1: human GIP receptor (human, UniProt P48546 22-466)
T1 sequence (looked up): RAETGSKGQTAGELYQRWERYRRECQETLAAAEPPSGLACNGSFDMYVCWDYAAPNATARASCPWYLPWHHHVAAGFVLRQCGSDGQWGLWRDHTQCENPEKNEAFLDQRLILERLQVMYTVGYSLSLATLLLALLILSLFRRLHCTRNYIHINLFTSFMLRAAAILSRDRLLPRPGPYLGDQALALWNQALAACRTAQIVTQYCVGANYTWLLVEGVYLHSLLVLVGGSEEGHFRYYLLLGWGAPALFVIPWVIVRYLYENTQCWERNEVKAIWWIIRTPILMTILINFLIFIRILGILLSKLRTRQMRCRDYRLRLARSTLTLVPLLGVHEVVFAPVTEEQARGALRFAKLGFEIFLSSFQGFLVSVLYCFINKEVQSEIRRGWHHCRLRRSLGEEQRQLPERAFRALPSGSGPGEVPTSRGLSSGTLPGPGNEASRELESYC

B1: Example 70 (peptide)
peptide: Y[Aib]EGTFTSDK([AEEA-AEEA-γGlu-C20 diacid])SILLDKIAQ[Aib]AFIEYLIEGG-NH2
modifications: N-terminus assumed
SMILES: CC[C@H](C)[C@H](NC(=O)[C@H](CCCCN)NC(=O)[C@H](CC(=O)O)NC(=O)[C@H](CC(C)C)NC(=O)[C@H](CC(C)C)NC(=O)[C@@H](NC(=O)[C@H](CO)NC(=O)[C@H](CCCCNC(=O)COCCOCCNC(=O)COCCOCCNC(=O)CC[C@H](NC(=O)CCCCCCCCCCCCCCCCCCC(=O)O)C(=O)O)NC(=O)[C@H](CC(=O)O)NC(=O)[C@H](CO)NC(=O)[C@@H](NC(=O)[C@H](Cc1ccccc1)NC(=O)[C@@H](NC(=O)CNC(=O)[C@H](CCC(=O)O)NC(=O)C(C)(C)NC(=O)[C@@H](N)Cc1ccc(O)cc1)[C@@H](C)O)[C@@H](C)O)[C@@H](C)CC)C(=O)N[C@@H](C)C(=O)N[C@@H](CCC(N)=O)C(=O)NC(C)(C)C(=O)N[C@@H](C)C(=O)N[C@@H](Cc1ccccc1)C(=O)N[C@H](C(=O)N[C@@H](CCC(=O)O)C(=O)N[C@@H](Cc1ccc(O)cc1)C(=O)N[C@@H](CC(C)C)C(=O)N[C@H](C(=O)N[C@@H](CCC(=O)O)C(=O)NCC(=O)NCC(N)=O)[C@@H](C)CC)[C@@H](C)CC
B2: Example 71 (peptide)
peptide: Y[Aib]EGTFTSDYSILK([AEEA-AEEA-γGlu-C20 diacid])DKIAQ[Aib]AFIEYLIEGG-NH2
modifications: N-terminus assumed
SMILES: CC[C@H](C)[C@H](NC(=O)[C@H](CCCCN)NC(=O)[C@H](CC(=O)O)NC(=O)[C@H](CCCCNC(=O)COCCOCCNC(=O)COCCOCCNC(=O)CC[C@H](NC(=O)CCCCCCCCCCCCCCCCCCC(=O)O)C(=O)O)NC(=O)[C@H](CC(C)C)NC(=O)[C@@H](NC(=O)[C@H](CO)NC(=O)[C@H](Cc1ccc(O)cc1)NC(=O)[C@H](CC(=O)O)NC(=O)[C@H](CO)NC(=O)[C@@H](NC(=O)[C@H](Cc1ccccc1)NC(=O)[C@@H](NC(=O)CNC(=O)[C@H](CCC(=O)O)NC(=O)C(C)(C)NC(=O)[C@@H](N)Cc1ccc(O)cc1)[C@@H](C)O)[C@@H](C)O)[C@@H](C)CC)C(=O)N[C@@H](C)C(=O)N[C@@H](CCC(N)=O)C(=O)NC(C)(C)C(=O)N[C@@H](C)C(=O)N[C@@H](Cc1ccccc1)C(=O)N[C@H](C(=O)N[C@@H](CCC(=O)O)C(=O)N[C@@H](Cc1ccc(O)cc1)C(=O)N[C@@H](CC(C)C)C(=O)N[C@H](C(=O)N[C@@H](CCC(=O)O)C(=O)NCC(=O)NCC(N)=O)[C@@H](C)CC)[C@@H](C)CC
B3: Example 72 (peptide)
peptide: Y[Aib]EGTFTSDYSILLDKIAQ[Aib]K([AEEA-AEEA-γGlu-C20 diacid])FIEYLIEGG-NH2
modifications: N-terminus assumed
SMILES: CC[C@H](C)[C@H](NC(=O)[C@H](CCCCN)NC(=O)[C@H](CC(=O)O)NC(=O)[C@H](CC(C)C)NC(=O)[C@H](CC(C)C)NC(=O)[C@@H](NC(=O)[C@H](CO)NC(=O)[C@H](Cc1ccc(O)cc1)NC(=O)[C@H](CC(=O)O)NC(=O)[C@H](CO)NC(=O)[C@@H](NC(=O)[C@H](Cc1ccccc1)NC(=O)[C@@H](NC(=O)CNC(=O)[C@H](CCC(=O)O)NC(=O)C(C)(C)NC(=O)[C@@H](N)Cc1ccc(O)cc1)[C@@H](C)O)[C@@H](C)O)[C@@H](C)CC)C(=O)N[C@@H](C)C(=O)N[C@@H](CCC(N)=O)C(=O)NC(C)(C)C(=O)N[C@@H](CCCCNC(=O)COCCOCCNC(=O)COCCOCCNC(=O)CC[C@H](NC(=O)CCCCCCCCCCCCCCCCCCC(=O)O)C(=O)O)C(=O)N[C@@H](Cc1ccccc1)C(=O)N[C@H](C(=O)N[C@@H](CCC(=O)O)C(=O)N[C@@H](Cc1ccc(O)cc1)C(=O)N[C@@H](CC(C)C)C(=O)N[C@H](C(=O)N[C@@H](CCC(=O)O)C(=O)NCC(=O)NCC(N)=O)[C@@H](C)CC)[C@@H](C)CC
B4: Example 73 (peptide)
peptide: Y[Aib]EGTFTSDYSILLDKIAQ[Aib]AFIEYLIK([AEEA-AEEA-γGlu-C20 diacid])GG-NH2
modifications: N-terminus assumed
SMILES: CC[C@H](C)[C@H](NC(=O)[C@H](CCCCN)NC(=O)[C@H](CC(=O)O)NC(=O)[C@H](CC(C)C)NC(=O)[C@H](CC(C)C)NC(=O)[C@@H](NC(=O)[C@H](CO)NC(=O)[C@H](Cc1ccc(O)cc1)NC(=O)[C@H](CC(=O)O)NC(=O)[C@H](CO)NC(=O)[C@@H](NC(=O)[C@H](Cc1ccccc1)NC(=O)[C@@H](NC(=O)CNC(=O)[C@H](CCC(=O)O)NC(=O)C(C)(C)NC(=O)[C@@H](N)Cc1ccc(O)cc1)[C@@H](C)O)[C@@H](C)O)[C@@H](C)CC)C(=O)N[C@@H](C)C(=O)N[C@@H](CCC(N)=O)C(=O)NC(C)(C)C(=O)N[C@@H](C)C(=O)N[C@@H](Cc1ccccc1)C(=O)N[C@H](C(=O)N[C@@H](CCC(=O)O)C(=O)N[C@@H](Cc1ccc(O)cc1)C(=O)N[C@@H](CC(C)C)C(=O)N[C@H](C(=O)N[C@@H](CCCCNC(=O)COCCOCCNC(=O)COCCOCCNC(=O)CC[C@H](NC(=O)CCCCCCCCCCCCCCCCCCC(=O)O)C(=O)O)C(=O)NCC(=O)NCC(N)=O)[C@@H](C)CC)[C@@H](C)CC
B5: Example 74 (peptide)
peptide: YXEGTFTSDYSIXLDKKAQXAXIEYLIEGGPSSGAPPPS
modifications: not fully specified; Aib2; αMeF13 as printed (likely αMeL13); K17((2-[2-(2-Amino-ethoxy)-ethoxy]-acetyl)2-(γ-Glu)-CO-(CH2)18-CO2H); Aib20; αMeF22; C-terminal NH2
B6: Example 75 (peptide)
peptide: B5 peptide with X22F, L26X
modifications: not fully specified; Aib2; αMeF13 as printed (likely αMeL13); K17((2-[2-(2-Amino-ethoxy)-ethoxy]-acetyl)2-(γ-Glu)-CO-(CH2)18-CO2H); Aib20; αMeF26 as printed (likely αMeL26); C-terminal NH2
B7: Example 76 (peptide)
peptide: B5 peptide with F6X
modifications: not fully specified; Aib2; αMeF6; αMeF13 as printed (likely αMeL13); K17((2-[2-(2-Amino-ethoxy)-ethoxy]-acetyl)2-(γ-Glu)-CO-(CH2)18-CO2H); Aib20; αMeF22; C-terminal NH2
B8: Example 77 (peptide)
peptide: Y[Aib]EGTFTSDYSILLKIAQ[Aib]AFIEYLIEGGPSSGAPPK([AEEA-AEEA-γGlu-C20 diacid])S-NH2
modifications: N-terminus assumed
SMILES: CC[C@H](C)[C@H](NC(=O)[C@H](CCCCN)NC(=O)[C@H](CC(C)C)NC(=O)[C@H](CC(C)C)NC(=O)[C@@H](NC(=O)[C@H](CO)NC(=O)[C@H](Cc1ccc(O)cc1)NC(=O)[C@H](CC(=O)O)NC(=O)[C@H](CO)NC(=O)[C@@H](NC(=O)[C@H](Cc1ccccc1)NC(=O)[C@@H](NC(=O)CNC(=O)[C@H](CCC(=O)O)NC(=O)C(C)(C)NC(=O)[C@@H](N)Cc1ccc(O)cc1)[C@@H](C)O)[C@@H](C)O)[C@@H](C)CC)C(=O)N[C@@H](C)C(=O)N[C@@H](CCC(N)=O)C(=O)NC(C)(C)C(=O)N[C@@H](C)C(=O)N[C@@H](Cc1ccccc1)C(=O)N[C@H](C(=O)N[C@@H](CCC(=O)O)C(=O)N[C@@H](Cc1ccc(O)cc1)C(=O)N[C@@H](CC(C)C)C(=O)N[C@H](C(=O)N[C@@H](CCC(=O)O)C(=O)NCC(=O)NCC(=O)N1CCC[C@H]1C(=O)N[C@@H](CO)C(=O)N[C@@H](CO)C(=O)NCC(=O)N[C@@H](C)C(=O)N1CCC[C@H]1C(=O)N1CCC[C@H]1C(=O)N[C@@H](CCCCNC(=O)COCCOCCNC(=O)COCCOCCNC(=O)CC[C@H](NC(=O)CCCCCCCCCCCCCCCCCCC(=O)O)C(=O)O)C(=O)N[C@@H](CO)C(N)=O)[C@@H](C)CC)[C@@H](C)CC
B9: Example 78 (peptide)
peptide: B5 peptide with Y1X, X13L, X22F
modifications: D-Tyr1; Aib2; K17((2-[2-(2-Amino-ethoxy)-ethoxy]-acetyl)2-(γ-Glu)-CO-(CH2)18-CO2H); Aib20; C-terminal NH2
B10: Example 79 (peptide)
peptide: B5 peptide with Y1X, X2A, X13L, X22F
modifications: N-terminal Ac; D-Tyr1; K17((2-[2-(2-Amino-ethoxy)-ethoxy]-acetyl)2-(γ-Glu)-CO-(CH2)18-CO2H); Aib20; C-terminal NH2
B11: Example 81 (peptide)
peptide: B5 peptide with S11X, X13L, X22F
modifications: Aib2; D-Ser11; K17((2-[2-(2-Amino-ethoxy)-ethoxy]-acetyl)2-(γ-Glu)-CO-(CH2)18-CO2H); Aib20; C-terminal NH2
B12: Example 82 (peptide)
peptide: B5 peptide with I12X, X13L, X22F
modifications: Aib2; D-Ile12; K17((2-[2-(2-Amino-ethoxy)-ethoxy]-acetyl)2-(γ-Glu)-CO-(CH2)18-CO2H); Aib20; C-terminal NH2
B13: Example 4 (peptide)
peptide: YXEGTXTSDXSIXLDXKAQXEFIXXLIEGGPSSGAPPPS
modifications: Aib2; αMeF(2F)6; 4Pal10; αMeL13; Orn16; K17((2-[2-(2-Amino-ethoxy)-ethoxy]-acetyl)2-(γ-Glu)-CO-(CH2)16-CO2H); Aib20; D-Glu24; αMeY25; C-terminal NH2
B14: Example 83 (peptide)
peptide: B5 peptide with X13L, X22F, E28X
modifications: Aib2; K17((2-[2-(2-Amino-ethoxy)-ethoxy]-acetyl)2-(γ-Glu)-CO-(CH2)18-CO2H); Aib20; D-Glu28; C-terminal NH2

biological target: T1, human GIP receptor; assay: cell-based or functional assay

Row | Binder | hGIPR cAMP EC50 ratio | hGIPR cAMP Rel EC50
1 | B1 | 0.351 | 0.48 nM
2 | B2 | 1.02 | 0.166 nM
3 | B3 | 0.715 | 0.252 nM
4 | B4 | 0.174 | 0.979 nM
5 | B5 | 1.7 | 0.0866 nM
6 | B6 | 0.69 | 0.214 nM
7 | B7 | 1.24 | 0.124 nM
8 | B8 | 0.00102 | 135 nM
9 | B9 | 0.293 | 0.532 nM
10 | B10 | 2.11 | 0.0732 nM
11 | B11 | 0.373 | 0.428 nM
12 | B12 | 0.00679 | 24.3 nM
13 | B13 | 5.95 | 0.0272 nM
14 | B14 | 0.804 | 0.182 nM

biological target: human GLP-1 receptor (human, UniProt P43220 24-463); assay: cell-based or functional assay

Row | Binder | hGLP1R cAMP EC50 ratio | hGLP1R cAMP Rel EC50
15 | B1 | 0.207 | 0.283 nM
16 | B2 | 0.0604 | 1.02 nM
17 | B3 | 0.0645 | 0.906 nM
18 | B4 | 0.0225 | 2.55 nM
19 | B5 | 0.115 | 0.467 nM
20 | B6 | 0.0359 | 1.49 nM
21 | B7 | 0.63 | 0.125 nM
22 | B8 | < 3.25e-05 | > 2000 nM
23 | B9 | 0.143 | 0.544 nM
24 | B10 | 0.041 | 2.02 nM
25 | B11 | 0.063 | 1.29 nM
26 | B12 | 0.00325 | 26.1 nM
27 | B13 | 1.41 | 0.0297 nM
28 | B14 | 0.166 | 0.387 nM
